Patent US20070020252A1, “Modified protease inhibitors” (priority 2003, published 2007)

What was measured:
[1] = target: T1, human neutrophil elastase (HNE) (Homo sapiens, UniProt P08246); conditions: description statement; cited from earlier work
T1 sequence (P08246 30-267): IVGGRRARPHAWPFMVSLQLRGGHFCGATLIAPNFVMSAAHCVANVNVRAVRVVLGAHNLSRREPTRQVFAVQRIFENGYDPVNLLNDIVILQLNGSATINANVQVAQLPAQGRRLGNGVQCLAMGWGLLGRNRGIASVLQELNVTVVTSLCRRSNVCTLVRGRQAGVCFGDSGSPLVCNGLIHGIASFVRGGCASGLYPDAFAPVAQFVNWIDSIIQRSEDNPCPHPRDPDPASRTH

[2] = Allometric extrapolation of β-phase half-life from mice and rabbits to humans; conditions: 70 Kg human, linear extrapolation from mice and rabbits
Text: Data on in vivo pharmacokinetic parameters obtained from small laboratory mammals (e.g. rodents, dogs, and monkeys) can be extrapolated to humans by interspecies scaling (summarized by Mahmood and Balian, Life Sciences 7: 579-585, 1996 and Clin Pharmacokinet 36:1-11, 1999). A simple allometric approach describes the relationship between bodyweight (W) and a pharmacokinetic parameter of interest (Y) in terms of the power function: Y=aW^b (Equation 4) where a and b are the empirically determined coefficient and exponent of the allometric equation, respectively. […] Further, of the three most important pharmacokinetic parameters (total body clearance, volume of distribution, and t1/2β) typically measured, t1/2β is least well predicted by Equation 4. With these caveats in mind, data presented in Tables 2 and 4 can be used to provide crude estimates of expected t1/2β in humans.
FIG. 10 presents data from Tables 2 and 4 plotted as log [Beta Phase Half-Live] vs log [Body Mass] for unmodified DX-890 (triangles) and mono-PEG30-DX-890 (circles). Linear extrapolations of the experimental data for mice (25 gm) and rabbits (2.5 Kg) to humans (70 Kg) are shown by the solid crosses in the figure. The extrapolated values for β-phase half-lives in humans are ˜5 hours for unmodified DX-890 and ˜14 days for mono-PEG30-DX-890. […]

[3] = Pharmacokinetic study in rabbits: plasma clearance of 125I-labeled protein, SEC of plasma; type: in vivo, New Zealand White rabbits
Description: Pharmacokinetic properties of DX-890 and PEG-30-DX-890 (conjugation at pH 7.4) were measured by iodinating the proteins and measuring clearance of the radiolabel from circulation in rabbits. The two DX-890 preparations were iodinated with iodine-125 using the iodogen method. After radiolabeling, the two labeled protein preparations were purified from unbound label by size exclusion chromatography (SEC). Fractions from the SEC column having the highest radioactivity were pooled. The purified, radiolabeled preparations were characterized for specific activity by gamma counting and for purity by SEC using a Superose-12 column equipped with an in-line radiation detector.
New Zealand White rabbits (ca. 2.5 Kg) were used for clearance measurements, with one animal used for each of the two labeled protein preparations. The radiolabeled preparation was injected into the animal via an ear vein. One blood sample was collected per animal per time point with early time points at approximately 0, 2.5, 5, 7, 15, 30, 60, and 90 minutes post injection and later time points at 4, 8, 16, 24, 30, 48, 72, 96, 144, 168, and 192 hours post injection. Samples (about 0.5 mL) were collected into anticoagulant (EDTA) containing tubes. Cells were separated from the plasma fraction by centrifugation. The plasma fraction was divided into two aliquots. One plasma aliquot was stored at −70° C. and the other aliquot was kept at 4° C. for immediate analyse's. Sample analyses included radiation counting for clearance rate determinations and SEC chromatography to test for changes in the size distribution of radiolabeled material in vivo (stability).

[4] = Pharmacokinetic study in mice: plasma clearance of 125I-labeled protein, SEC of plasma; type: in vivo
Description: The pharmacokinetics of DX-890 and the PEGylated DX-890 compounds were measured by iodinating the proteins on available tyrosine residues and measuring their clearance in mice.
Samples were radio-iodinated by the indirect method using the IODO-GEN reagent (method from Pierce Chem. Co., and first described by Chizzonite [J Immunol 147, 1548-1556, 1991; J. Immunol 148, 3117-3124, 1992]). Samples were incubated with the ^125I-NaI solution for 9 min at which time tyrosine (10 mg/mL, a saturated solution) was added to quench the reaction. After about 15 min a 5 μl aliquot was removed as a standard for counting.
For each labeling reaction, the ^125I-labeled material (approx. 0.6 mL) was purified using a single 5 mL D-salt 1800 polyacrylamide column (Pierce Chem. Co.). […] Samples were applied in and columns were eluted with a series of 0.3 mL aliquots. Recovery of applied activity in all protein fractions was >75% and the total recovery of applied activity was >90%. The fractions containing peak levels of labeled protein were pooled for animal injections. To prepare the injectate, the pool was diluted with Tris buffer (pH 7.5) so that the 100 μL injection volume contained about 10 μg of labeled material.
Time of injection and time of sampling were recorded. At sacrifice, samples of 0.5 ml were collected into anticoagulant (0.02 ml EDTA). Cells were spun down and separated from plasma, and cells were stored at −20° C. Plasma was divided into two aliquots, one frozen and one stored at 4° C. for immediate analysis. Analysis included gamma counting of all samples. In addition, analysis was performed for two plasma samples (N=2) at each time point, i.e., 0, and 30 minutes, for ^125I-DX-890, and 0, 30 minutes, and 24 h for the ^125I-DX-890-PEG conjugates. A SEC-HPLC Superose-12 column was used with an in-line radiation detector (FIGS. 4-7).
The solid curves through the sets of data plotted in FIG. 3 are four-parameter, least-squares fits of Equation 3 to the data. Table 3 presents the values for % α Phase, α Phase Half-life, % β Phase, and β Phase Half-life extracted from the least squares fits to the in vivo clearance data set obtained for each of the four compounds tested in mice.

[5] = ear vein injection, bi-exponential fit
[6] = tail vein injection, bi-exponential fit

## DX-890: 56 amino acid Kunitz domain polypeptide derived from ITI-D2, inhibitor of human neutrophil elastase, produced in Pichia pastoris (EACNLPIVRGPCIAFFPRWAFDAVKGKCVLFPYGGCQGNGNKFYSEKECREYCGVP)
[1]
  Ki: 4 pM
[2]
  extrapolated β-phase half-life in humans: ~5 h
[3]
  in vivo stability, SEC analysis of plasma: relatively rapid association of label with higher molecular weight plasma components
[3]; [5]
  % α: 75%
  % β: 25%
  T1/2α: 24 s
  T1/2β: 2.75 h
[4]
  percentage cleared in the β phase: about 15%
  α phase half life: about 1 min
  β phase half life: about 1 hr
[4]; 30 minutes after injection
  material remaining in circulation: less than 20%
[4]; Table 4 summary
  α half life: 1 min
  β half life: 1.32 h
[4]; [6]
  α Phase Clearance (%): 84%
  α Phase Half-life: 1.0 min
  β Phase Clearance (%): 16%
  β Phase Half-life (hr): 1.3 h
  β Phase Half-life (min): 79 min
